Assay results reported in publication PMC8355310, “Using cryo-EM to understand antimycobacterial resistance in the catalase-peroxidase (KatG) from Mycobacterium tuberculosis” (Structure(London, England:1993), 2021).

Biological target: the molecule itself
Assay: cryo-EM structure

Protein | binding result
wild-type catalase-peroxidase KatG from Mycobacterium tuberculosis (enzyme, covalent linkage between Trp107, Tyr229 and Met255 (MYW catalytic triad); b-type heme bound in both protomers, also called WT KatG; KatG^INH (with INH added); not shown: His-tag, N-terminal, cleaved) MPEQHPPITETTTGAASNGCPVVGHMKYPVEGGGNQDWWPNRLNLKVLHQNPAVADPMGAAFDYAAEVATIDVDALTRDIEEVMTTSQPWWPADYGHYGPLFIRMAWHAAGTYRIHDGRGGAGGGMQRFAPLNSWPDNASLDKARRLLWPVKKKYGKKLSWADLIVFAGNCALESMGFKTFGFGFGRVDQWEPDEVYWGKEATWLGDERYSGKRDLENPLAAVQMGLIYVNPEGPNGNPDPMAAAVDIRETFRRMAMNDVETAALIVGGHTFGKTHGAGPADLVGPEPEAAPLEQMGLGWKSSYGTGTGKDAITSGIEVVWTNTPTKWDNSFLEILYGYEWELTKSPAGAWQYTAKDGAGAGTIPDPFGGPGRSPTMLATDLSLRVDPIYERITRRWLEHPEELADEFAKAWYKLIHRDMGPVARYLGPLVPKQTLLWQDPVPAVSHDLVGEAEIASLKSQIRASGLTVSQLVSTAWAAASSFRGSDKRGGANGGRIRLQPQVGWEVNDPDGDLRKVIRTLEEIQESFNSAAPGNIKVSFADLVVLGGCAAIEKAAKAAGHNITVPFTPGRTDASQEQTDVESFAVLEPKADGFRNYLGKGNPLPAEYMLLDKANLLTLSAPEMTVLVGGLRVLGANYKRLPLGVFTEASESLTNDFFVNLLDMGITWEPSPADDGTYQGKDGSGKVKWTGSRVDLVFGSNSELRALVEVYGADDAQPKFVQDFVAAWDKVMNLDRFDVR | binds
KatG T275P variant from Mycobacterium tuberculosis (enzyme, Homodimer (C2 symmetry imposed); no ordered heme modelled in either protomer; also called T275P KatG; not shown: His-tag, N-terminal, cleaved) MPEQHPPITETTTGAASNGCPVVGHMKYPVEGGGNQDWWPNRLNLKVLHQNPAVADPMGAAFDYAAEVATIDVDALTRDIEEVMTTSQPWWPADYGHYGPLFIRMAWHAAGTYRIHDGRGGAGGGMQRFAPLNSWPDNASLDKARRLLWPVKKKYGKKLSWADLIVFAGNCALESMGFKTFGFGFGRVDQWEPDEVYWGKEATWLGDERYSGKRDLENPLAAVQMGLIYVNPEGPNGNPDPMAAAVDIRETFRRMAMNDVETAALIVGGHTFGKPHGAGPADLVGPEPEAAPLEQMGLGWKSSYGTGTGKDAITSGIEVVWTNTPTKWDNSFLEILYGYEWELTKSPAGAWQYTAKDGAGAGTIPDPFGGPGRSPTMLATDLSLRVDPIYERITRRWLEHPEELADEFAKAWYKLIHRDMGPVARYLGPLVPKQTLLWQDPVPAVSHDLVGEAEIASLKSQIRASGLTVSQLVSTAWAAASSFRGSDKRGGANGGRIRLQPQVGWEVNDPDGDLRKVIRTLEEIQESFNSAAPGNIKVSFADLVVLGGCAAIEKAAKAAGHNITVPFTPGRTDASQEQTDVESFAVLEPKADGFRNYLGKGNPLPAEYMLLDKANLLTLSAPEMTVLVGGLRVLGANYKRLPLGVFTEASESLTNDFFVNLLDMGITWEPSPADDGTYQGKDGSGKVKWTGSRVDLVFGSNSELRALVEVYGADDAQPKFVQDFVAAWDKVMNLDRFDVR | binds
KatG W107R variant from Mycobacterium tuberculosis (enzyme, also called W107R KatG; not shown: His-tag, N-terminal, cleaved) MPEQHPPITETTTGAASNGCPVVGHMKYPVEGGGNQDWWPNRLNLKVLHQNPAVADPMGAAFDYAAEVATIDVDALTRDIEEVMTTSQPWWPADYGHYGPLFIRMARHAAGTYRIHDGRGGAGGGMQRFAPLNSWPDNASLDKARRLLWPVKKKYGKKLSWADLIVFAGNCALESMGFKTFGFGFGRVDQWEPDEVYWGKEATWLGDERYSGKRDLENPLAAVQMGLIYVNPEGPNGNPDPMAAAVDIRETFRRMAMNDVETAALIVGGHTFGKTHGAGPADLVGPEPEAAPLEQMGLGWKSSYGTGTGKDAITSGIEVVWTNTPTKWDNSFLEILYGYEWELTKSPAGAWQYTAKDGAGAGTIPDPFGGPGRSPTMLATDLSLRVDPIYERITRRWLEHPEELADEFAKAWYKLIHRDMGPVARYLGPLVPKQTLLWQDPVPAVSHDLVGEAEIASLKSQIRASGLTVSQLVSTAWAAASSFRGSDKRGGANGGRIRLQPQVGWEVNDPDGDLRKVIRTLEEIQESFNSAAPGNIKVSFADLVVLGGCAAIEKAAKAAGHNITVPFTPGRTDASQEQTDVESFAVLEPKADGFRNYLGKGNPLPAEYMLLDKANLLTLSAPEMTVLVGGLRVLGANYKRLPLGVFTEASESLTNDFFVNLLDMGITWEPSPADDGTYQGKDGSGKVKWTGSRVDLVFGSNSELRALVEVYGADDAQPKFVQDFVAAWDKVMNLDRFDVR | binds
